Measurements from US20140223606, “COMPOSITIONS AND METHODS COMPRISING SEQUENCES HAVING MEGANUCLEASE ACTIVITY” (PIONEER HI BRED INTERNATIONAL INC, published 2014).
Where a chain is given by its changes, count along the chain named.

B1: ZM6.22v2 recognition site (dsDNA)
DNA 1: ATTGCTCTCTCACATACTTTTA
DNA 2: TAAAAGTATGTGAGAGAGCAAT
B2: LIG3-4 recognition site (dsDNA)
DNA 1: ATATACCTCACACGTACGCGTA
DNA 2: TACGCGTACGTGTGAGGTATAT

Tests used:
Conditions in all cases: tags: NLS, 6xHis
ZM6.22v2(I9) = molecular target: T1, ZM6.22v2(I9) (artificial); assay: cell_activity; yeast 37 C; 30 C: 0
T1 chain: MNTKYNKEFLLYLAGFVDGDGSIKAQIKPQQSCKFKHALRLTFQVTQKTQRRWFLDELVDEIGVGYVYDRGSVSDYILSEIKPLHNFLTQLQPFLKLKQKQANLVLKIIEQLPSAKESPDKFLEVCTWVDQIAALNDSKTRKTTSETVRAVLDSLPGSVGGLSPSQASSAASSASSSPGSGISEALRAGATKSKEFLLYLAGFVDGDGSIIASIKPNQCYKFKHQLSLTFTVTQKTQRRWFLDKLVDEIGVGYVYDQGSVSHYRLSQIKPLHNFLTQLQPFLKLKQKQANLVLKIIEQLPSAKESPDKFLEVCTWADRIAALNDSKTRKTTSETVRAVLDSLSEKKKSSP
Experimental: (§1) A 3 mL culture of selective media (MP Biomedical) was inoculated with a single colony of the yeast screening strain and grown at 30° C. overnight. On the following day, a 50 ml YPD culture (MP Biomedical) was started with 2 ml of the overnight culture and grown at 30° C. overnight. On the following day, the cells were harvested by centrifugation at 4000 rpm. The cells were resuspended in 100 ml ice cold water and centrifuged again. The cells were then washed in 1.2 M sorbitol, followed by treatment with 2 ml of 10 mM Tris pH 8.0, 1 mM EDTA, 100 mM Lithium acetate, 10 mM DTT, 0.6M sorbitol for 30 minutes at 30° C. with shaking. The cells were recovered by centrifugation, washed in 40 ml 1.2M sorbitol and finally resuspended in 250 microliters of 1.2M sorbitol. 50 microliter aliquots were transferred to test tubes on ice. Up to 5 microliters of DNA (100-500 nanograms) were added. The suspension was transferred to a 0.2 cm electroporation cuvette, on ice. Electroporation was performed with a pulse charge at 1.5 kV, 200 ohms, 25 microF (pulse time of 5 milliseconds). 1 mL YPD media (MP Biomedical) was added and the cells were allowed to recover at 30° C. for 1-2 hr. The cells were centrifuged, resuspended in 100 uL 1M sorbitol and plated on selective media lacking leucine and containing 2% galactose. The resulting yeast colonies were incubated at various temperatures ranging from 22 to 37 degrees Celsius for 7-10 days. I-CreI and meganucleases derived from it have maximal activity at or above 37 degrees Celsius. Screening was performed at a range of temperatures from 22 to 37 degrees in order to observe increases in activity at lower temperatures which are relevant to certain biological systems (eg. plant cells, plant cell cultures, etc). At that time the red/white sectoring phenotype, indicative of meganuclease activity was observed. Colonies with increased white sectoring over the parental meganuclease (indicating colonies expressing a meganuclease with increased meganuclease activity), also referred to as “hits” and sometimes completely white, were isolated for further analysis.
(§2) A total of 13 ZM6.22v2 variants with increased activity were confirmed in the yeast system (as described in Example 6). Increased activity was observed across a range of temperatures: 28 degrees Celsius, 30 degrees Celsius and 37 degrees Celsius, as shown in Table 16.

ZM6.22v2(J2) = molecular target: T2, ZM6.22v2(J2) (artificial); assay: cell_activity; yeast 37 C; 30 C: 0
T2 chain: T1 chain with Y12H, E57K, E124R, A316V, R318Q
Experimental: as §1, §2

ZM6.22v2(I3) = molecular target: T3, ZM6.22v2(I3) (artificial); assay: cell_activity; yeast 37 C; 30 C: 0
T3 chain: T1 chain with Y12H, E57K, E311R, A316V, R318Q
Experimental: as §1, §2

LIG3-4(B70) = molecular target: T4, LIG3-4(B70) (artificial); assay: cell_activity; yeast 30 C; 22 C: 4
T4 chain: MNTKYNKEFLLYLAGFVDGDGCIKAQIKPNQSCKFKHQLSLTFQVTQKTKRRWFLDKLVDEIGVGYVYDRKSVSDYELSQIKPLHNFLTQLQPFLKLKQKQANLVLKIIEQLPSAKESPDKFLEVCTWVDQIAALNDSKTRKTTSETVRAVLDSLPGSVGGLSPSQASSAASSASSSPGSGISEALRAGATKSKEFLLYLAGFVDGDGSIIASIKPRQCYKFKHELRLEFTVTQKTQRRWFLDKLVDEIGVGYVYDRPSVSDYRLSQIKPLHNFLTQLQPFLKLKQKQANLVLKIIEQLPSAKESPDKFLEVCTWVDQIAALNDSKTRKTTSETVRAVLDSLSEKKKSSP
Experimental: as §1

LIG3-4(B82) = molecular target: T5, LIG3-4(B82) (artificial); assay: cell_activity; yeast 30 C; 22 C: 4
T5 chain: T4 chain with S209C, P258K
Experimental: as §1

| Binder | activity (ZM6.22v2(I9)) | activity (ZM6.22v2(J2)) | activity (ZM6.22v2(I3)) | activity (LIG3-4(B70)) | activity (LIG3-4(B82)) |
| --- | --- | --- | --- | --- | --- |
| B1 | 2 score 0-4 | 2 score 0-4 | 2 score 0-4 |  |  |
| B2 |  |  |  | 4 score 0-4 | 4 score 0-4 |
